We go through two substances from article PMC10462622.

Assay [1] concerns the target HIV-1 NL4-3 Vif N48H (residues 1-176) (HIV-1 (pNL4-3)) (UniProt P12504).
For assay [2], the target named is HIV-1 pNL4-3 Vif N48H/R93E, expressed in HEK293T (HIV-1 (pNL4-3)) (UniProt P12504).

“human A3H K97Q/E70R, expressed in HEK293T (natural protein)” returned a Vif-mediated degradation assay: resistance of A3H to Vif (+N48H), Western blot in assay [1] of 40%.

For “human A3H haplotype II K97Q (MBP tag cleaved) (natural protein)”, the Vif-mediated degradation assay: increase of the A3H level in the presence of the Vif mutant, Western blot in assay [2] is 70%.
